From patent publication US20170218081A1 (OHIO STATE INNOVATION FOUNDATION, published 2017)

Tests used:
[1] = biological target: T1, Bovine submaxillary mucin (bovine); experiment: estimate from the competition dot blot on BSM
T1 construct: Glycoprotein used as the TAG-72-positive antigen in dot blots and SPR; also called BSM; TAG-72 positive mucin
Method: (§1) A similar dot blot experiment was performed using constant concentrations of BSM and fluorescein-labeled 3E8 IgG. The assays were performed with increasing concentrations of unlabeled 3E8.scFv. […] Two negative controls were performed in parallel. […] By 4 μM scFv about half of the IgG is displaced and by […] the dot blot resembles the negative control. This analysis estimates that 3E8.scFv binds approximately 16-fold weaker than 3E8.IgG and both bind the same epitope. The slight loss in affinity is expected since the native IgG is bivalent versus the monovalent scFv.
(§2) The epitope binding of the 3E8.scFv was assayed for its ability to inhibit 3E8.IgG binding. Here, 0.25 μM labeled 3E8.IgG competed with increasing concentrations of nonlabeled 3E8.scFv (0 to 8 μM). The loss of fluorescence was observed using the Typhoon phosphorimager with 488 nm excitation.

[2] = biological target: T1, Bovine submaxillary mucin; experiment: SPR on immobilised BSM
[3] = biological target: T2, bovine serum albumin (bovine, UniProt P02769 25-607); experiment: fluorescence dot blot on nitrocellulose
T2 construct: also called BSA
T2 sequence (P02769 25-607 limits assumed): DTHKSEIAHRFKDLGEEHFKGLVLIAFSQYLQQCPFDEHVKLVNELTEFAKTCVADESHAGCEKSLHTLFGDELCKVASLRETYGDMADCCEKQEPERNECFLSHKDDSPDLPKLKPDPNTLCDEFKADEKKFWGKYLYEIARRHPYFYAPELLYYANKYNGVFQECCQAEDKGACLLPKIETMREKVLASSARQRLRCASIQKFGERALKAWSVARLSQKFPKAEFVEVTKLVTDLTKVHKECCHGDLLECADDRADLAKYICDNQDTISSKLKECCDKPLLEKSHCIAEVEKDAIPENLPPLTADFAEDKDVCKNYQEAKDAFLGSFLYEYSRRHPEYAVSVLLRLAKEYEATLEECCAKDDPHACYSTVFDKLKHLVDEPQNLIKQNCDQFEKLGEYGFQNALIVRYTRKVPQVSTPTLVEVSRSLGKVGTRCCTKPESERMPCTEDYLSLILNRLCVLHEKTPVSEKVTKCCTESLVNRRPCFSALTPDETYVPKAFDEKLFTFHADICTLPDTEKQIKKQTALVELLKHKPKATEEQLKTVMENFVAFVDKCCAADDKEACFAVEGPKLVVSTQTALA
Method: Bovine submaxillary mucin is positive for the TAG-72 epitope, sialyl-Tn. To qualitatively assay binding, BSM was spotted on a nitrocellulose membrane and then blocked with bovine serum albumin (BSA). The antibodies and fragments were labeled nonspecifically at lysines with the NHS-ester of fluorescein, and then were added to the dot blots. After gentle washing the samples were imaged using a Typhoon phosphorimager.
Qualitative binding to sialyl-Tn was assayed by dot-blotting. First, 2 μL of 5 mg mL⁻¹ bovine submaxillary mucin (M3895-Sigma) was spotted on a nitrocellulose membrane. The membrane was allowed to dry overnight before blocking with 5 mg mL⁻¹ BSA. After overnight incubation, excess BSA was removed by washing before addition of fluorescein-labeled scFvs. The scFvs were incubated for 3 hours at room temperature before washing. Fluorescence was observed using a Typhoon phosphorimager with 488 nm excitation.

[4] = biological target: T1, Bovine submaxillary mucin; experiment: SPR
[5] = biological target: T1, Bovine submaxillary mucin; experiment: estimate from the competition dot blot against labeled 3E8.IgG
[6] = biological target: T1, Bovine submaxillary mucin; experiment: competition dot blot; unlabeled scFv against 0.25 µM fluorescein-labeled 3E8 IgG on BSM
Method: as §1, §2

[7] = biological target: T1, Bovine submaxillary mucin; experiment: SPR, BSM immobilised on CM5 chip
Method: To further confirm the binding data, surface plasmon resonance on 3E8.IgG, CC49.scFv, and 3E8.scFv (FIG. 7c) was determined. […] Next the affinity of the scFv of CC49 was measured. CC49.scFv binds in the mid-nanomolar range with a dissociation constant of 30±8 nM. Finally, SPR was conducted on 3E8.scFv and found it to bind 2-fold better than CC49.scFv and only 4-fold weaker than the bivalent IgG. At 16±4 nM, 3E8.scFv binds better than clinically tested CC49.IgG and scFv variants of CC49, and has more desirable biophysical properties than full-length antibodies.
The binding parameters were evaluated using surface plasmon resonance (SPR). BSM was immobilized on a CM5 dextran sensor chip using the GE Pharmacia amine coupling kit (BR-1000-50). Scouting conditions were 200 μg mL⁻¹ BSM in 100 mM sodium acetate, pH 4 for channel 2, and 10 μg mL⁻¹ BSA in 100 mM sodium acetate, pH 4 for channel 1. The immobilization protocol continued until 700 RU were obtained. Binding was measured as 2-1. Antibody and fragments were dialyzed into 10 mM HEPES, 150 mM NaCl, 3.4 μM EDTA, 0.005% surfactant P20 (GE Healthcare) and were assayed from 0-400 nM. Samples were bound for 120 seconds at 10 μL min⁻¹ and dissociation was measured for 180 seconds. The CM5 chip was regenerated between trials with 6 M guanidine and 200 mM acetic acid with no loss in activity. The average binding parameters were evaluated using the BIAevaluation software.

[8] = biological target: T2, bovine serum albumin; experiment: negative control of the competition dot blot, fluorescein-labeled IgG, no BSM
Method: as §1, §2

fold weaker binding than 3E8.IgG [1]	Kd [2]	binding result [3]	Kd [4]	Kd [5]	IC50 [6]	Kd [7]	fold weaker binding than 3E8 IgG [7]	binding result [8]	Binder	fold tighter binding than CC49.scFv [7]
~16 fold	12 nM	no binding	16.4 nM	~10.4 nM	~4000 nM	16 nM	4 fold	–	3E8.scFv (scFv, Labelled at lysines with fluorescein for the fluorescence dot blots and with biotin for the HRP dot blot and IHC; also called the scFv of 3E8; 3E8 scFv single chain) scFv: GSSGDIVMTQSPDSLAVSLGERATINCKSSQSVLYSSNNKNYLAWYQQKPGQPPKLLIYWASTRESGVPDRFSGSGSGTDFTLTISSLQAEDVAVYYCQQYYSYPLTFGGGTKVEIKLSADDAKKDAAKKDDAKKDDAKKDLQVQLVQSGAEVKKPGASVKVSCKASGYTFTDHAIHWVRQAPGQRLEWMGYFSPGNDDFKYSQKFQGRVTITADKSASTAYMELSSLRSEDTAVYYCARSWIMQYWGQGTLVTVSS	2 fold
–	–	–	–	–	–	4 nM	–	no binding (tested: 0.25 µM)	3E8 IgG (antibody, V domains shown, Full-length humanized monoclonal IgG, gift from Enlyton, Ltd; Fluorescein-labelled at lysines in the dot blots; also called the bivalent IgG; full-length 3E8 IgG) VH: QVQLVQSGAEVKKPGASVKVSCKASGYTFTDHAIHWVRQAPGQRLEWMGYFSPGNDDFKYSQKFQGRVTITADKSASTAYMELSSLRSEDTAVYYCARSWIMQYWGQGTLVTVSS VL: not shown	–
